Experimental data: US20250163160A1 (Amgen, published 2025)

What was measured:
[1] = molecular target: T1, human FGF21 receptor (FGF21R): full length human FGFR1c and full length human β-Klotho co-expressed on cells (human, UniProt P11362 22-822; Q86Z14 53-1044); test: cell-based or functional assay
[2] = molecular target: T1, human FGF21 receptor (FGF21R): full …; test: cell-based or functional assay; remark: listed apart in the source

B1: 16H7 variant, heavy chain H3, light chain D49A (antibody, human IgG2, lambda, V domains shown)
VH: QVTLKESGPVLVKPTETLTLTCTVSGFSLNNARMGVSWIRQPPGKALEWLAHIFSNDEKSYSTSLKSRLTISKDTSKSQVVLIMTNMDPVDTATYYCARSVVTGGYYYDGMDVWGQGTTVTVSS
VL: SYVLTQPPSVSVAPGQTARITCGGNNIGSESVHWYQQKPGQAPVLVVYADSDRPSGIPERFSGSNSGNTATLTISRVEAGDEADYYCQVWDGNSDHVVFGGGTKLTVLG
- EC50 (nM), Erk-phosphorylation, human adipocyte assay [1]: 0.63 nM

B2: 16H7 variant, heavy chain H3, light chain D91A (antibody, human IgG2, lambda, V domains shown)
VH: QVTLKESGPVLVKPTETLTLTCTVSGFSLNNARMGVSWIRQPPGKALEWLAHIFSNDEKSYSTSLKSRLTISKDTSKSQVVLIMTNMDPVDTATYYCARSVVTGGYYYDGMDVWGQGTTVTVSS
VL: SYVLTQPPSVSVAPGQTARITCGGNNIGSESVHWYQQKPGQAPVLVVYDDSDRPSGIPERFSGSNSGNTATLTISRVEAGDEADYYCQVWAGNSDHVVFGGGTKLTVLG
- EC50 (nM), Erk-phosphorylation, human adipocyte assay [1]: 1.3 nM

B3: Fibroblast Growth Factor 21 (FGF21), human (ligand)
chain: HPIPDSSPLLQFGGQVRQRYLYTDDAQQTEAHLEIREDGTVGGAADQSPESLLQLKALKPGVIQILGVKTSRFLCQRPDGALYGSLHFDPEACSFRELLLEDGYNVYQSEAHGLPLHLPGNKSPHRDPAPRGPARFLPLPGLPPAPPEPPGILAPQPPDVGSSDPLSMVGPSQGRSPSYAS
modifications: Alexa 647-NHS label (Example 1); biotin (Example 8, second Biacore analysis)
- EC50 (read off the curve); luciferase reporter (RLU) in AM-1/D FGFR1c+β-Klotho Luc cells, FGF21 alone (0 nM 39F11) [2]: 1 to 2 nM
